Here are results for three molecules from US7345160B2, “Aequorin and obelin mutants with differing wavelengths and bioluminescence” (University of Kentucky Research Foundation, priority 2004, dated 2008).

A short description of data set [1]: Emission spectra of obelin and obelin mutants with coelenterazine analogues. It counts as physicochemical. As to conditions: all coelenterazine analogues. The text has this: Obelin mutants C75S/C51/S, C75S/C67, C158S, C151S, and wild type obelin were purified and multiple spectra taken and averaged (See FIG. 20).
Data set [2] in a line: Emission spectra (emission maximum) of purified aequorin mutants with coelenterazine analogues. Type of data set: physicochemical. From the text:
In order to detect the inventive aequorin mutants, the use of an instrument capable of detecting flash-type bioluminescence over a wide range of wavelengths is envisaged. For example, a fiber optic sensor collects the bioluminescence signal emitted by the aequorin and transmits it to a grating that directs the beam of light to onto an optical array detector. In one embodiment, the system to acquire the spectra from the flash kinetics of aequorin and obelin luminescence consists of a microtiter plate reader. The optical path of the instrument is replaced with a high collecting efficiency fiber optic bundle. This fiberoptic bundle carries the emitted light into an Oriel Instruments Fixed Imaging Compact Spectrograph, the dispersed light is then fed into an ANDOR cooled CCD detector. See for example the SpectroSystem By Sciencewares, Inc (East Falmouth, Mass.).
Cysteine free aequorin (Mutant S), Y132I Mutant S aequorin, Aeq5 (Mutant S with a cysteine at position 5), and wild type Aequorin were purified and multiple spectra taken and averaged (See FIG. 1). […] Mutant S had emission maximums ranging from 448 nm to 491 nm. Y132I Mutant S has emission maximums ranging from 453 nm to 487 nm. Aequorin 5 had emission maximums ranging from 466 nm to 491 nm. The greatest spread in emission maximum thus far has been between MutS/CTZ i and MutS/CTZ hcp (448 nm, 491 nm, respectively (43 nm range)). […] The greatest spread in emission maxima wavelengths so far with the same coelenterazine is CTZ hcp with Aeq5 (476 nm) and MutS (448 nm) being 28 nm. Also, the maximum spread with the same CTZ's and different aequorins is 19 nm for i, ip, and f.
Mutant S, Mutant S Y132I and Aeq 5 final emission spectrums were the result of the average of three trials. Wild type aequorins final spectrum was the result of two trials. All mutants, except Aeq5, were purified to >95% purity using SDS-PAGE and silver staining. All coelenterazine analogues were diluted to 100 micrograms/ML methanol. Solvent composition, coelenterazine concentration, temperature, and incubation time, were the same for all trials except with N coelenterazine, which required a higher concentration of aequorin than the other coelenterazines to show activity. Concentrations of the different mutants were not identical. Half life determination of Y132I Mut S with coelenterazines i, ip, h, hcp, cp, fcp, f, and native were 23, 0.9, 0.4, 0.2, 0.6, 0.7, 2.6, and 1.2 seconds, respectively.

The conditions of data set [3]: in solution at 4° C. for over a month; cited from earlier work.
For data set [4] the following is noted: general statement, cited from earlier work.

Several values for one entry are separate records, joined by “and”; a condition that tells them apart may be missing. Equal entries are not always repeated. Where two headings read alike, the source gives them in different places.

B1: Wild type obelin: bioluminescent protein from the marine hydroid Obelia longissima; SEQ ID NO: 6 (protein, listed as Obelia longissima)
chain: MSSKYAVKLKTDFDNPRWIKRHKHMFDFLDINGNGKITLDEIVSKASDDICAKLEATPEQTKRHQVCVEAFFRGCGMEYGKEIAFPQFLDGWKQLATSELKKWARNEPTLIREWGDAVFDIFDKDGSGTITLDEWKAYGKISGISPSQEDCEATFRHCDLDNSGDLDVDEMTRQHLGFWYTLDPEADGLYGNGVP
In data set [1], B1 had an emission maxima of 469 nm.

B2: wild type aequorin: native recombinant aequorin encoded by SEQ ID NO: 1, purchased commercially (Aqualite from Molecular Probes) (protein, listed as Aequorea victoria)
chain: VKLTSDFDNPRWIGRHKHMFNFLDVNHNGKISLDEMVYKASDIVINNLGATPEQAKRHKDAVEAFFGGAGMKYGVETDWPAYIEGWKKLATDELEKYAKNEPTLIRIWGDALFDIVDKDQNGAITLDEWKAYTKAAGIIQSSEDCEETFRVCDIDESGQLDVDEMTRQHLGFWYTMDPACEKLYGGAVP
With B2, the emission maximum is given as 472 nm in data set [2] (over all coelenterazine analogues (i, ip, h, hcp, cp, fcp, f, n, native)); “the same emission maxima for all coelenterazines analogues” in data set [2] (over all coelenterazine analogues (i, ip, h, hcp, cp, fcp, f, n, native), listed as Wild type aequorin); 472 nm in data set [2] (over all coelenterazine analogues (i, ip, h, hcp, cp, fcp, f, n, native), listed as native recombinant aequorin). Moreover, the “original activity retained on storage” value in data set [3] was 85%. Also, the “emission wavelength of aequorin” value in data set [4] is recorded as 469-472 nm; in data set [4] (listed as aequorin), 469 nm; in data set [4] (listed as recombinant aequorin) it was 469 nm.

B3: Mutant S: aequorin mutant where the three cysteine residues are replaced with serine (positions 145, 152, 180); SEQ ID NO: 4 (protein, listed as Aequorea victoria)
chain: VKLTSDFDNPRWIGRHKHMFNFLDVNHNGKISLDEMVYKASDIVINNLGATPEQAKRHKDAVEAFFGGAGMKYGVETDWPAYIEGWKKLATDELEKYAKNEPTLIRIWGDALFDIVDKDQNGAITLDEWKAYTKAAGIIQSSEDSEETFRVSDIDESGQLDVDEMTRQHLGFWYTMDPASEKLYGGAVP
B3: the “spread in emission maximum between CTZ i and CTZ hcp” value in data set [2] (same protein, CTZ i vs CTZ hcp) is on record as 43 nm. Besides, the emission maximum in data set [2] (with CTZ hcp, listed as MutS) was 491 nm and 448 nm; in data set [2] (with CTZ i), 448 nm.
